Test results: PMC4132743 (Nucleic Acids Research, 2014)

Biological target: T1, DnaT Y127A/W128A (Escherichia coli K12, UniProt P0A8J2 1-179, Y127A;W128A)
T1 sequence: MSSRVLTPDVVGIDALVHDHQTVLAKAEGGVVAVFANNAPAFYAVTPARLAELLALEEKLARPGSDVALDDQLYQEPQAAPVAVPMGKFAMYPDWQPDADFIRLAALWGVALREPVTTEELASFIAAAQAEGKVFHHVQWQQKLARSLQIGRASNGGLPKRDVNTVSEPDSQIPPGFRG
Experiment: fluorescence polarization; almost no detectable binding; Buffer A: 20 mM Tris-HCl pH 7.5, 40 mM NaCl, 5% v/v glycerol, 20 C; FPA 200 nM 5'-FAM DNA, Hill fit; EMSA 30 min at 20 C, gels in 0.5x TBE at 4 C
Settings: protein: recombinant; tags: His-MBP removed by TEV; label: 5'-FAM

TTTTTTTTTTTTTTTTTTTTTTTTTTTTTT (ssDNA) [5F-dT30]
binding result: no binding
